# The RNAGym collection of RNA variant scans (doi:10.1073/pnas.2313332121)
# B1: TPR t1 (parent)
# chain: GACCAAUCUGCCCUCAGAGCUCGAGAACAUCUUCGGAUGCAGAGGAGGCAGGCUUCGGUGGCGCGAUAGCGCCAACGUCCUCAACCUCCAAUGCAUCCCACCACAUGAUGAUGCCUGAAGAGCCUUGGUUUUUUG
# Variants of: B1
# Assay: polymerase ribozyme fitness, log enrichment relative to wild type (log ratio); higher = more active; in vitro selection for triplet polymerase activity
# Outline: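 After PCR construction and transcription, each subunit's mutant library from a heterodimeric triplet polymerase ribozyme was annealed with a biotinylated primer, the partner subunit and triplets. Incubation was frozen, at −7 °C, and extended constructs were gel-excised, bound to streptavidin beads and amplified by RT-PCR, in one selection round done in triplicate. Fitness is the logarithm of a genotype's enrichment divided by that of the wild type, from inverse-variance-weighted replicate averages of Illumina-sequenced inputs and outputs. The base of the logarithm is 2, and genotypes needed ≥10 input reads and ≥1 read per output.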
row,Variant,polymerase ribozyme fitness (log ratio)
1,A50C C97G,-6.04
2,A50C C104U G110A A118U,-0.437
3,A50C C115U,-1.47
4,A50C G60C C64A A103G C104A C124U,-5.11
5,A50C G60U C97A,-5.38
6,A50C G61C U109A,-6.96
7,A50C G61U C79G U129C,-2.24
8,A50C G63U U81A,-1.63
9,A50C G71A C79G C104A,-5.88
10,A50C G71U C101G,-2.67
11,A50C G77U C115G,-1.98
12,A50C G93U U112G,-2.03
13,A50C G107A,-6.09
14,A50C G107U,-5.95
15,A50C G110A,-2.37
16,A50C U55C U106G,-2.2
17,A50C U59C C86U,-0.825
18,A50C U81C,0.175
19,A50C U87C,-0.237
20,A50C U87G G120C U131A,0.982
21,A50C U106A G110A G127C,-3.34

row,Variant,polymerase ribozyme fitness (log ratio)
1,A50C U129A,-1.83
2,A50C U130A,-0.352
3,A50G A83C C123U,-0.187
4,A50G C53A C72A G93C U109G,-5.37
5,A50G C53G G61A U116A G117A,-3.29
6,A50G C62A C99U,-6.11
7,A50G C62U G69U C80A,-3.77
8,A50G C73U C88U C124A,1.42
9,A50G C79A U96C,-2.32
10,A50G C88A C104U G113U U129C,-4.06
11,A50G G51A C72G C88U G110U,-5.05
12,A50G G60A,0.351
13,A50G G63A,-0.747
14,A50G G63U U130A,-2.47
15,A50G G77U C86G,-1.1
16,A50G U54C G63U C88U U130G,-2.9
17,A50G U78G,0.0351
18,A50U A74G,-1.27
19,A50U A84G,-3.04
20,A50U A91C,-3.23
21,A50U A95C,-1.9

row,Variant,polymerase ribozyme fitness (log ratio)
1,A50U A111G,-0.837
2,A50U A111G U125A,-2.24
3,A50U C64U C70U,-5.2
4,A50U C72G,-1.6
5,A50U C72U,-1.18
6,A50U C73A C80G C85A A90G G127U,-2.82
7,A50U C76A C82U,-1.67
8,A50U C76A G77A,-1.53
9,A50U C79G G110A G122C,-6.04
10,A50U C79U,-1.76
11,A50U C85A,-2.11
12,A50U C101G U106A A118G C124A,0.335
13,A50U C114A,-3.11
14,A50U C115A,-0.803
15,A50U G51C C73U,-3.52
16,A50U G52C A83C,-2.39
17,A50U G52C G58C C72U C88U,-4.47
18,A50U G58A C88U,-2.22
19,A50U G58C G71C C104A C124A,-3.2
20,A50U G60U,-1.4
21,A50U G60U U125G U129C,-3.19

row,Variant,polymerase ribozyme fitness (log ratio)
1,A50U G61A,-1.36
2,A50U G61U,-0.766
3,A50U G63A C124G,-0.873
4,A50U G63A U106A G135C,-2.47
5,A50U G113A,-2.01
6,A50U G113U,-2.75
7,A50U G117C,-2.96
8,A50U U54C C73A A95C,-1.37
9,A50U U55G C98U G127A,-5.19
10,A50U U59G U112G,-0.842
11,A50U U78G A90U,-3.54
12,A50U U87A,-1.09
13,A50U U106A,-0.951
14,A50U U112A C124U G128C,-4
15,A50U U125G G127C,-3.43
16,G51A A68C C79G C80G A84C C124G G128C,-7.23
17,G51A A68U C82U C124U,-7.31
18,G51A A74G A83G G120U C123G G128U,-1.97
19,G51A A83C,-3.73
20,G51A A84C,-2.3
21,G51A A95G,-2.62
